# In patent publication US9273290B2, “Method for producing phosphite dehydrogenase protein and use thereof” (priority 2011, dated 2016):
# Several values for one entry are separate records, joined by “and”; a condition that tells them apart may be missing. Equal entries are not always repeated.
# Assays:
# [1] = Solubility of His-tagged phosphite dehydrogenase forcibly expressed in E. coli (supernatant vs sediment, SDS-PAGE); format: physicochemical, Escherichia coli; settings: expressed in E. coli Rosetta2 (DE3), disruption buffer 50 mM Tris-HCl pH 7.4, 50 mM NaCl, 0.1% Tween20, centrifuged 15,000 rpm, CBB
# Source text: By a well-known method, the base sequence of SEQ ID NO: 2 or a phosphite dehydrogenase gene (SEQ ID NO: 4) of P stutzeri WM88 was inserted into a plasmid pET21b (produced by Novagen) (an amino acid sequence of the protein encoded by the base sequence of SEQ ID NO: 4 is shown in SEQ ID NO: 3) to prepare (i) an expression vector of a fusion protein (see “PtxD4506” in FIG. 2) in which the C-terminal of the phosphite dehydrogenase protein of SEQ ID NO: 1 is labeled with a His tag or (ii) an expression vector of a fusion protein (see “PtxDPst” in FIG. 2) in which the C-terminal of the phosphite dehydrogenase protein of P stutzeri WM88 is labeled with a His tag.
# A competent cell Rosetta2 (DE3) (produced by Novagen) was transformed by a well-known method with use of each of the expression vectors.
# Transformants thus obtained were inoculated on a 200 mL LB culture medium (containing 10 g of polypeptone, 5 g of yeast extract, and 5 g of NaCl per liter of the culture-medium), and were cultured at 37° C. until OD600 reached 0.5. Subsequently, IPTG (isopropyl thiogalactoside) was added to the culture so as to have a concentration of 1 mM. Then, the culture was incubated for another 3 more hours at 28° C.
# The culture was centrifuged at 6,000 rpm for 15 minutes, and bacteria, which were sediment, were collected. The bacteria were suspended in a buffer for disruption (50 mM Tris-HCl (pH: 7.4), 50 mM NaCl), and a suspension thus obtained was subjected to an ultrasonic treatment, so that the bacteria were disrupted. Subsequently, Tween20 (Registered Trademark) was added to a resultant solution of the disrupted bacteria so as to have a final concentration of 0.1%, and was left still on ice for 15 minutes. Note that the buffer for disruption containing the disrupted bacteria is indicated as “T” in FIG. 2.
# The buffer for disruption containing the disrupted bacteria was centrifuged at 15,000 rpm and 4° C. for 15 minutes. After the centrifugation, a resultant product was divided into a supernatant and sediment. In FIG. 2, the supernatant is indicated as “S” and the sediment is indicated as “I.”
# The buffer for disruption (T) containing the disrupted bacteria, the supernatant (S), and the sediment (I) described above were separated by SDS-PAGE. Subsequently, an acrylamide gel was dyed with CBB stain one (produced by Nacalai), and an amount of the phosphite dehydrogenase protein was measured.
# [2] = Reaction kinetic analysis of phosphite dehydrogenase protein (NADH production rate vs NAD+ concentration); format: biochemical; settings: ratio PtxD4506 / PtxDPst
# Method: PtxD4506 and PtxDPst, which were purified with use of the HisTrap column in [3. Expression of Phosphite Dehydrogenase Protein By Using Escherichia Coli], were compared with each other in terms of reaction rate. The following description discusses how measurement of reaction rates was carried out.
# Reaction rates of respective PtxD4506 and PtxDPst were calculated on the basis of (Reaction formula 1) shown in the section [Background Art].
# Specifically, in the reaction system of (Reaction formula 1), a production rate of NADH was measured with use of 7.5 μg of each of the fusion proteins PtxD4506 and PtxDPst while a concentration of a substrate (NAD^+) was gradually changed from 0.5 μM to 200 μM. […]
# Based on the measured concentration of the substrate (NAD^+) and the measured production rate of NADH, values of Km (μM), Vmax (μmol/min/m), Kcat (min^−1), and Kcat/km were calculated in accordance with a well-known enzyme kinetic method (see, for example, “Fundamental Experiment Method of Proteins and Enzymes (2nd revised edition), Nankodo Co., Ltd.”). Note that the experiment was carried out three times, and values of Km, Vmax, Kcat, and Kcat/km were calculated in each of the experiments. Then, for each of Km, Vmax, Kcat, and Kcat/km, an average of the values calculated in the three experiments was obtained and defined as the value of each of Km, Vmax, Kcat, and Kcat/km. […]
# [3] = Activity of phosphite dehydrogenase protein in the presence of inhibitor (relative OD340); format: biochemical; settings: no inhibitor = 100.0; for relative value of OD340, average: NaCl, average of experiments
# Method: PtxD4506 and PtxDPst, which were purified with use of the HisTrap column in [3. […] An experimental method was based on a method described in the literature “Costas et al., Journal of Biological Chemistry, 2001, 276, 17429-17436.” The experimental method is briefly described below.
# A reaction solution was prepared by mixing 100 μL of 100 mM MOPS-KOH (pH 7.25), 50 μL of 10 mM NAD, 5 μL of 5 mM phosphite, 50 μL of 40 mM inhibitor of various kinds (arsenite, nitrate, sulfate, or NaCl), 294 μL of H2O, and 1 μL of 0.5 mg/mL protein-containing solution (a PtxD4506-containing solution, a PtxDPst-containing solution, or a liquid which contained no protein (negative control)).
# The reaction solution was reacted for 60 minutes. Note that the reaction solution containing the PtxD4506-containing solution was reacted at 45° C., and the reaction solution containing the PtxDPst-containing solution was reacted at 30° C. Subsequently, OD340 was measured. A relative value of OD340 of each sample was calculated relative to 100 of a value of OD340 of the reaction solution containing the liquid which contained no protein (negative control). Note that each experiment was conducted 4 times or more, and an average of relative values obtained in the 4 or 5 experiments was also calculated.
# [4] = Heat resistance of phosphite dehydrogenase protein (specific activity vs temperature, FIG. 3); format: biochemical; settings: 0.2 mg/mL in 50 mM MOPS pH 7.4, kept at 10° C. to 60° C.; 1 mM NAD+, 1 mM phosphorous acid
# Method: After the ultracentrifugation, a supernatant was collected to be used as a crude extract for measuring phosphite dehydrogenase activity. A total of 1000 μL of a reaction solution was prepared which contained the crude extract (protein amount: 10 μg), NAD^+ (1 mM), phosphorous acid (1 mM), and a MOPS-KOH buffer (20 mM, pH 7.4). A temperature of the reaction solution was elevated to 45° C., so that a reaction was started. A sample was collected, each in an amount of 100 μL, at predetermined time intervals for a predetermined period of time (0 to 180 minutes), and absorbance (340 nm) of each sample was measured. Phosphite dehydrogenase activity was evaluated in terms of an amount of NADH generated by 1 mg of protein per unit time.
# PtxD4506 and PtxDPst, which were purified with use of the HisTrap column in [3. Expression of Phosphite Dehydrogenase Protein Using Escherichia Coli] were examined in terms of heat resistance. The following description discusses how measurement of heat resistance was carried out.
# Each of the purified PtxD4506 and PtxDPst was added to 50 mM of a MOPS buffer (pH 7.4) so as to have a final concentration of 0.2 mg/mL. 100 μL of an enzyme solution thus obtained was supplied to a 1.5-mL tube, and 100 μL of mineral oil was added to the enzyme solution in order to prevent evaporation. A temperature of the tube was maintained at 10° C. to 60° C. for 12 hours. […]
Molecule,fusion protein present in the sediment (I) [1],fusion protein present in the supernatant (S) [1],Km relative to that of PtxDPst [2],"relative value of OD340 ([3]; NaCl (50 μL of 40 mM in reaction solution), single experiments 1-5, 60 min, PtxD4506 at 45° C., PtxDPst at 30° C.)","relative value of OD340, average [3]",temperature at which specific activity is the highest (optimum temperature) [4]
"PtxD4506: fusion protein: phosphite dehydrogenase protein of SEQ ID NO: 1 (from Ralstonia sp. strain 4506), C-terminal labeled with a His tag (protein, C-terminal His tag; Ralstonia sp. 4506) MKPKVVLTHWVHPEIIELLSASADVIPNTTRETLPRSEVIARAKDADALMAFMPDSIDSAFLEECPKLRVIGAALKGYDNFDVNACTRHGVWLTIVPDLLTIPTAELTIGLLLGLTRHMLEGDRQIRSGHFQGWRPTLYGSGLTGKTLGIIGMGAVGRAIAQRLAGFEMNLLYCDPIPLNAEQEKAWHVQRVTLDELLEKCDYVVPMVPMAAETLHLIDATALAKMKTGSYLINACRGSVVDENAVIAALASGKLAGYAADVFEMEEWIRADRPQAIPKALLDNTAQTFFTPHLGSAVKEVRLEIERQAAMNIIQALAGEKPMGAINQPYPGVKAA",approximately 8.6%,approximately 91.4%,about a third,92.6 and 96.9 and 95.7 and 95.9 and 87.1,93.6,about 50 °C
"PtxDPst: fusion protein: phosphite dehydrogenase protein of P stutzeri WM88 (SEQ ID NO: 3), C-terminal labeled with a His tag (protein, listed as Pseudomonas stutzeri, C-terminal His tag) MLPKLVITHRVHDEILQLLAPHCELMTNQTDSTLTREEILRRCRDAQAMMAFMPDRVDADFLQACPELRVVGCALKGFDNFDVDACTARGVWLTFVPDLLTVPTAELAIGLAVGLGRHLRAADAFVRSGEFQGWQPQFYGTGLDNATVGILGMGAIGLAMADRLQGWGATLQYHEAKALDTQTEQRLGLRQVACSELFASSDFILLALPLNADTQHLVNAELLALVRPGALLVNPCRGSVVDEAAVLAALERGQLGGYAADVFEMEDWARADRPRLIDPALLAHPNTLFTPHIGSAVRAVRLEIERCAAQNIIQVLAGARPINAANRLPKAEPAAC",approximately 81.6%,approximately 18.4%,–,–,89.3,about 35 °C
